Data from patent US8287851B2, “Use of interleukin 17E for the treatment of cancer” (Lorus Therapeutics Inc., priority 2005, dated 2012).

Tests used:
splenic B cells = assay: Splenic B cell numbers and activation in C8161 tumour bearing mice (flow cytometry); assay type: in vivo, CD-1 nude mice; conditions: C8161-engrafted mice
Method: The increase in B cells was examined in BD-BRM-treated CD-1 nude mice. Briefly, the mice with human melanoma xenografts were treated for 4 weeks with either BD-BRM or PBS, as described in the preceding examples. Splenocytes were examined by flow cytometry for B cells using anti-IgM antibodies.
Antibodies fluorescein isothiocyanate (FITC)-anti-mouse IgM (eB121-15F9; IgG2a), phycoerythrin (PE) anti-mouse CD86 (GL1; IgG2a) and PE anti-mouse CD80 (16-10A1; hamster IgG) were purchased from eBioscience (San Diego, Calif.).
Flow cytometry was performed as described above. Briefly, splenocytes were isolated individually from CD1-nude C8161 tumour bearing mice treated 4 weeks with BD-BRM or PBS. Red blood cells were removed, followed by surface staining with (A) anti-IgM antibody-FITC or (B) anti-IgM-FITC and anti-CD80-PE+anti-CD86-PE by flow cytometry.
The effect of interleukin 17E on increased percentage of splenic eosinophils and B cells and the proportion of activated splenic B cells was examined. CD1-nude mice engrafted with C8161 human melanoma cells were treated with either PBS, murine IL-17E, or human IL-17E as described previously. At the endpoint of the experiment, spleens were isolated from treated mice, stained with markers specific for eosinophils (CCR3+), B cells (either IgM+ or CD19+), and B cell activation (CD-80+, CD86+), and examined by flow cytometry. Flow cytometry was performed as described in Example 4 above.
The percentage of eosinophils was determined by surface staining the granulocyte-gated population with phycoerythrin (PE)-conjugated anti-mouse CCR3. The percentage of B cells in the spleen was examined by surface staining with phycoerythrin (PE)-conjugated anti-mouse CD19. The proportion of activated splenic B cells was determined by staining with FITC-conjugated anti-mouse IgM together with PE-conjugated anti-mouse CD80 and PE-conjugated anti-mouse CD86. Statistical analysis was performed to compare eosinophil and B cell numbers/activation. P values <0.01 were considered to be significant.
In order to confirm that the effect of BD-BRM on splenic B cells as described in Example 5 is due to interleukin 17E activity, the effect of interleukin 17E on numbers and activation status of splenic B cells was examined. CD1-nude mice engrafted with C8161 human melanoma cells were treated with either PBS or murine IL-17E as described previously. At the endpoint of the experiment, spleens were isolated from treated mice, stained with markers specific for B cells (IgM+), and B cell activation (CD-80+, CD86+), and examined by flow cytometry. Flow cytometry was performed as described in Example 4 above.
Splenocytes were analyzed for the percentage of B cells by surface staining with FITC-conjugated anti-mouse IgM antibodies. Activated B cells were determined by surface staining with FITC-conjugated-anti-mouse IgM antibodies, and PE-conjugated-anti-mouse CD80 and PE-conjugated-anti-mouse CD86. Statistical analysis was performed to compare B cell numbers/activation. P values <0.01 were considered to be significant.

[1] = system: human pancreatic cancer MiaPaCa-2 xenograft; assay: Antitumour efficacy in human pancreatic cancer MiaPaCa-2 xenograft model; assay type: in vivo, CD-1 athymic nude mice; conditions: 0.04 mg/kg murine IL-17E i.p. every third day
Method: The ability of murine interleukin 17E to inhibit human pancreatic cancer growth was examined as follows. Human pancreatic cancer MiaPaCa-2 cells (10^6 cells in 100 μl PBS) were subcutaneously implanted into the right flank of CD-1 athymic nude mice. Murine IL-17E was obtained from R&D Systems, Inc., and is present in the preparation as a disulphide linked homodimer. The predominant form of IL-17E in this preparation is the form starting at Val 17 of the murine sequence provided as GenBank Accession No. NP 542767. When tumours reached a volume of 50-100 mm^3, mice were randomly separated into two groups of 8 animals and treated as follows:
Group I: […] of PBS intraperitoneally (i.p.) per mouse every day until the endpoint of the experiment; and
Group II: 0.04 mg/kg of murine IL-17E intraperitoneally (i.p.) every third day until the endpoint of the experiment.
The size of the tumours was measured by caliper measurements throughout the experiment. Tumour weight was determined from tumour tissue surgically excised from the animal on the last day of the experiment. […]
25 μg of murine or human IL-17E were reconstituted with 200 μl PBS. […] Samples were separated by electrophoresis on SDS-PAGE gels and analyzed by either Western blotting or silver staining to show a reduction in IL-17E levels in immunodepleted samples. […]

Molecule | percentage of splenic B cells (CD19+) as compared to PBS (splenic B cells; Example 21) | proportion of activated B cells (IgM, CD80, CD86) in the spleen as compared to PBS (splenic B cells; Example 21) | tumour growth (tumour volume and weight) as compared to PBS [1] | percentage of splenic B cells (IgM+) as compared to PBS (splenic B cells; Example 22) | proportion of activated B cells (IgM, CD80, CD86) in the spleen as compared to PBS (splenic B cells; Example 22)
human IL-17E: Recombinant human IL-17E from PeproTech; two 145 amino acid chains, predominant form starting at Tyr 33 of GenBank AAG40848 (protein, listed as Homo sapiens) YSHWPSCCPSKGQDTSEELLRWSTVPVPPLEPARPNRHPESCRASEDGPLNSRAISPWRYELDRDLNRLPQDLYHARCLCPHCVSLQTGSHMDPRGNSELLYHNQTVFYRRPCHGEKGTHKGYCLERRLYRVSLACVCVRPRVMG | significantly increased | significantly increased |  |  | 
murine IL-17E: Murine IL-17E from R&D Systems; predominant form starting at Val 17 of GenBank NP 542767 (protein) VSLRIQEGCSHLPSCCPSKEQEPPEEWLKWSSASVSPPEPLSHTHHAESCRASKDGPLNSRAISPWSYELDRDLNRVPQDLYHARCLCPHCVSLQTGSHMDPLGNSVPLYHNQTVFYRRPCHGEEGTHRRYCLERRLYRVSLACVCVRPRVMA | significantly increased | significantly increased | significantly inhibit tumour growth | significantly increased | significantly increased
